Test results published in PMC10876938, “In vitro SELEX and application of an African swine fever virus (ASFV) p30 protein specific aptamer”.

Molecular target: ASFV p30 (African swine fever virus, UniProt P34204 1-204)
Test: enzyme-linked aptamer adsorbed assay; […] (binding buffer not stated); […], room temperature, 30 min; […]
Details: protein: commercial, label: 5'-biotin
[1] = hairpin (M-fold predicted for parent)

Chain of ASFV p30 (P34204 whole entry): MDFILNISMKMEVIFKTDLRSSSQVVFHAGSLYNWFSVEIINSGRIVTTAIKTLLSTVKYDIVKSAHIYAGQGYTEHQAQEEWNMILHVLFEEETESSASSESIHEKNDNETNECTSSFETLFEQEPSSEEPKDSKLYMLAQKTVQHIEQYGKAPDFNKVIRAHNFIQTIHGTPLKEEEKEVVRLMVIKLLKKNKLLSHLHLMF

B1: AptNC (ssDNA)
DNA: ATTGGCACTCCACGCATCTATGCGTGCTACCGTGAA
B1: no binding.

B2: Atc-28 (ssDNA)
DNA: CATAGGGTCGACGGTGCCGTCCGTGTTCACACTCCCATTTGGGTGGCCTATG
B2 gave a Kd [1] of 0.153 ± 0.0003 nM.

B3: Atc-20 (ssDNA)
DNA: CACGCATAGGGTCGACGGTGCCGTCCGTGTTCACACTCCCATTTGGGTGGCCTATGCGTG
Work on B3 yielded a Kd [1] of 0.14 ± 0.01 nM.

B4: Apt A4 (biotin) (ssDNA)
DNA: ATTGGCACTCCACGCATAGGGTCGACGGTGCCGTCCGTGTTCACACTCCCATTTGGGTGGCCTATGCGTGCTACCGTGAA
With B4 the Kd (hairpin (M-fold predicted)) was 0.17 ± 0.0062 nM.

B5: Atc-34 (ssDNA)
DNA: GGGTCGACGGTGCCGTCCGTGTTCACACTCCCATTTGGGTGGCC
B5 showed a Kd [1] of 0.266 ± 0.068 nM.
